The target of the assay is MdtJ-His6 (Lawsonia intracellularis MdtJ, orphan, Cys-less). The experiment in a line: size exclusion chromatography with densitometry of blot fractions. Conditions: parent: est. 36; read off a plot. (Size exclusion chromatography separates by hydrodynamic size, large species first.)

On to “FtsH-His6 (E. coli FtsH, wild type) (from UniProt P0AAI3) S2K; K6A; N7L; Q23L”, for which the response amounted to 11%.

Values taken from PMC13039401.
